Publication PMC10526137, “Development of a High-Accuracy, Low-Cost, and Portable Fluorometer with Smartphone Application for the Detection of Urinary Albumin towards the Early Screening of Chronic Kidney and Renal Diseases”

Target: human serum albumin (HSA) (Homo sapiens, UniProt P02768 25-609)
Experiment: graphene oxide fluorescence recovery (aptamer release from GO); GO-aptamer complex, PBS pH 7.4, HSA 0.001-1.5 mg/mL; LOD 0.203 ug/mL, no Kd; PBS pH 7.4, room temperature; 15 uL of 5 uM Cy5-H8 + 85 uL GO-PBS (15 uL of 5 mg/mL GO in 70 uL PBS) 5 min in the dark, then 100 uL HSA for 30 min; also artificial urine
Conditions: protein: commercial; label: 5'-Cy5

human serum albumin (HSA), sequence (P02768 25-609): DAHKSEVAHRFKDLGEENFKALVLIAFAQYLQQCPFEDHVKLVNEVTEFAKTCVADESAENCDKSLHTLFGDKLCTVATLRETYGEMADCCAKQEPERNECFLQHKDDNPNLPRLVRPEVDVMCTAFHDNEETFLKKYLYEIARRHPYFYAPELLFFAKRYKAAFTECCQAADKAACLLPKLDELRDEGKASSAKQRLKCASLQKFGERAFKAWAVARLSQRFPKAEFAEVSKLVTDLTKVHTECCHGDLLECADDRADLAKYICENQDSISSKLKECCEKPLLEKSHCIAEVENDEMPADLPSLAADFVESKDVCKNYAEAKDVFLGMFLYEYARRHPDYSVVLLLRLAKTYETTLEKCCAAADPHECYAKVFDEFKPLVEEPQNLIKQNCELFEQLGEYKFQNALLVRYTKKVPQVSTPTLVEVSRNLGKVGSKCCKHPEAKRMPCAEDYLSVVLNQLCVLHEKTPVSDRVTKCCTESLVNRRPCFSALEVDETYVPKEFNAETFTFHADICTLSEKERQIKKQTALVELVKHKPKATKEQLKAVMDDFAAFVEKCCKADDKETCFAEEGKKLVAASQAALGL

B1: H8 albumin aptamer (ssDNA)
DNA: ATACCAGCTTATTCAATTCCCCCGGCTTTGGTTTAGAGGTAGTTGCTCATTACTTGTACGCTCCGGATGAGATAGTAAGTGCAATCT
Question: Does B1 bind?
Answer: Result: binds
